Target: biotinylated eLtaS protein (extracellular domain of LtaS of S. aureus) (S. aureus 8325-4) (UniProt Q2G093)
Experiment: SPR; biotinylated eLtaS immobilised on Sensor Chip SA; C3 and C3b injected at 300, 100, 30, 10 ug/ml; global kinetic fit

UniProt Q2G093, sequence (Q2G093 whole entry, the tested form may be a part): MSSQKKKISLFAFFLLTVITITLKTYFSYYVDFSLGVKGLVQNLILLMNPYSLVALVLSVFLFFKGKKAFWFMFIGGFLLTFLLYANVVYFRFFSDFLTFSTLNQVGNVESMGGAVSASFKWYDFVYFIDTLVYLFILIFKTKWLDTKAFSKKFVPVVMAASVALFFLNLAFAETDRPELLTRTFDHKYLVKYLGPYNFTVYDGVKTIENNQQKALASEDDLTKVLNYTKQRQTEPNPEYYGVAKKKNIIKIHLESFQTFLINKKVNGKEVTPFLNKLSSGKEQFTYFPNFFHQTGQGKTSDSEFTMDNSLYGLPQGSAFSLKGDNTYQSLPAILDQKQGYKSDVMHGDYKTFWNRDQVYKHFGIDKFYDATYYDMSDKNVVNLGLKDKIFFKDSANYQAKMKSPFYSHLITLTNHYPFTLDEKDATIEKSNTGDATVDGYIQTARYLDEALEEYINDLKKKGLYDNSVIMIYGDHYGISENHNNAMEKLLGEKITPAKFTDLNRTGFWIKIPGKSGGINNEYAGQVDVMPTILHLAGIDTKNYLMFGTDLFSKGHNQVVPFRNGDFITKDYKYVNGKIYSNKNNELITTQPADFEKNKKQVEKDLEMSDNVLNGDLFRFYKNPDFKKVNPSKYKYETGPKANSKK

Substance	Kd	koff	kon
human complement C3 (from UniProt P01024 23-667; P01024 672-1663) (natural protein)	0.687 nM	0.00149 s⁻¹	2.17e+06 M⁻¹ s⁻¹
human complement C3b (from UniProt P01024 23-667; P01024 749-1663) (domain or fragment)	0.546 nM	0.00198 s⁻¹	3.63e+06 M⁻¹ s⁻¹

Source: PMC4657049
